Measured values: patent US20050026828A1

Key:
[1] = target: human prokineticin receptor 2 (human) (UniProt Q8NFJ6); test: cell-based or functional assay
[2] = target: human prokineticin receptor 1 (human) (UniProt Q8TCW9); test: cell-based or functional assay
Sequence of UniProt Q8TCW9 (Q8TCW9 whole entry I255M/S256T): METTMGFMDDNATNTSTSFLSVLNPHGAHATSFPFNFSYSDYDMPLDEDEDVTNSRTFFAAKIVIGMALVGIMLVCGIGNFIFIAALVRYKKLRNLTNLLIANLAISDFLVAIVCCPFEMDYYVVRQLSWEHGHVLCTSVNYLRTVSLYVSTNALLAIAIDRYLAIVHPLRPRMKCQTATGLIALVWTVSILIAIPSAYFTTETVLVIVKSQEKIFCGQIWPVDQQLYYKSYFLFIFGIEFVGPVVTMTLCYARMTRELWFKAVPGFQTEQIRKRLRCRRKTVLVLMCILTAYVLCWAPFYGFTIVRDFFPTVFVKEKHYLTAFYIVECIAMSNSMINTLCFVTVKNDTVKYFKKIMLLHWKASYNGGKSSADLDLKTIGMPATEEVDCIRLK

Sequence of UniProt Q8NFJ6 (Q8NFJ6 whole entry): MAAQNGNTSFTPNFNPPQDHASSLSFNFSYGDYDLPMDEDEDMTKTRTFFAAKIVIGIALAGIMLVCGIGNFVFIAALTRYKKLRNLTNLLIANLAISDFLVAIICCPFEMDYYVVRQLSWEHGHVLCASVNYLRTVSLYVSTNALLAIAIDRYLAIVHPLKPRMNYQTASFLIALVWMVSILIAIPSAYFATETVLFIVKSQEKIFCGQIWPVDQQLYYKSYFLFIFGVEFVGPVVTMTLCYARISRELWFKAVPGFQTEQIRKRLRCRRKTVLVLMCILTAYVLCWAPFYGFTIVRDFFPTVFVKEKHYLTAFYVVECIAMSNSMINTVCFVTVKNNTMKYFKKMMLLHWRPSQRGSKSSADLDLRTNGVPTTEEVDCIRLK

Antagonistic Activity of PK mutants (Calcium Mobilization Assay), ligand PK1 [1]	Antagonistic Activity of PK mutants (Calcium Mobilization Assay), ligand PK2 [1]	Antagonistic Activity of PK mutants (Calcium Mobilization Assay), ligand PK1 [2]	Antagonistic Activity of PK mutants (Calcium Mobilization Assay), ligand PK2 [2]	Binder
15 nM	30 nM	9 nM	90 nM	Met PK1 (ligand) MAVITGACERDVQCGAGTCCAISLWLRGLRMCTPLGREGEECHPGSHKVPFFRKRKHHTCPCLPNLLCSRFPDGRYRCSMDLKNINF
16 nM	29 nM	6 nM	110 nM	MV PK1 (ligand) MVITGACERDVQCGAGTCCAISLWLRGLRMCTPLGREGEECHPGSHKVPFFRKRKHHTCPCLPNLLCSRFPDGRYRCSMDLKNINF
